The values below come from patent US20140302517A1 (SAMSUNG ELECTRONICS, published 2014).

Residue numbers refer to the chain shown, from its start.

B1: HAL 7-2 (antibody, human IgG1, lambda, V domains shown)
VH: QVQLVQSGAEVKKPGSSVKVSCKASGGTFSSYAISWVRQAPGQGLEWMGGIIPIFGTANYAQKFQGRVTITADESTSTAYMELSSLRSEDTAVYYCARDRNSYYEEPMYYFDYWGQGTLVTVSS
VL: QAGLTQPPSVSVSPGQTASITCSGDKLGDRYVFWYQQKPGQAPVLVVHDDSDRPSGIPERFSGSNSGDTATLTISRVEAGDEADYYCQVWDSVNDHPVFGGGTKLTVLG
B2: HAL 7-5 (antibody, human IgG1, lambda, V domains shown)
VH: B1 VH with S16A
VL: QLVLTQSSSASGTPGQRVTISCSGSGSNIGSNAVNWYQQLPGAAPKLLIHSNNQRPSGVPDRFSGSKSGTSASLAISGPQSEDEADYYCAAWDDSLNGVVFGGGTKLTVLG
B3: EW28 (antibody, human IgG1, lambda, V domains shown)
VH: EVQLLESGGGLVQTGGSLRLSCAVSGFTFSDYAMSWVRQAPGKGLEWVSAISSGDGNTYYADSVKGRFTISRDNSKNTLYLQMNSLRAEDTAVYYCARYLGTTSDEPASYSNGMDVWGQGTLVTVSS
VL: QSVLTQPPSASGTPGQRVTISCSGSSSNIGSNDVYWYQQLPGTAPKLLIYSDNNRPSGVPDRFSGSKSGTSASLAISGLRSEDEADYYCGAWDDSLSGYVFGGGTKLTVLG
B4: EW01 (antibody, human IgG1, lambda, V domains shown)
VH: EVQLLESGGGLVQPGGSLRLSCAVSGFTFSDYYMSWVRQAPGKGLEWVSGIYSSSSNIYYADSVKGRFTISRDNSENTLYLQMNSLRAEDTAVYYCAKALGNQENEPTSYSNGMDVWGQGTLVTVSS
VL: QSVLTQPPSASGTPGQRVTISCSGSSSNIGNNSVYWYQQLPGTAPKLLIYSDSQRPSGVPDRFSGSKSGTSASLAISGLRSEDEADYYCGTWDYSLNGYVFGGGTKLTVLG
notes: also called anti-idiotype antibody EW01; EW01 antibody
B5: EW37 (antibody, human IgG1, lambda, V domains shown)
VH: EVQLLESGGGLVQPGGSLRLSCAASGFTFSNYSMSWVRQAPGKGLEWVSSISSSGGNTYYADSVKGRFTISRDNSKNTLYLQMNSLRAEDTAVYYCARVHLYFDYWGQGTLVTVSS
VL: B4 VL with N31S, Y35N, Q54H, T91S, Y94D, N97S
B6: EW10 (antibody, human IgG1, lambda, V domains shown)
VH: EVQLLESGGGLVQPGGSLRLSCAASGFTFSGYDMSWVRQAPGKGLEWVSGISYNGGSKYYADSVKGRFTISRDNSKNTLYLQMNSLRAEDTAVYYCAKYLLPVLEEPGYSADGMDVWGQGTLVTVSS
VL: B4 VL with S23T, N31S, S33Y, Y35S, Q38R, Q54N, G90A, Y94A, N97S, G98A
B7: EW03 (antibody, human IgG1, lambda, V domains shown)
VH: EVQLLESGGGLVQPGGSLRLSCAASGFTFSDYDMSWVRQAPGKGLEWVSLISYGGSNTYYADSVKGRFTISRDNSKNTLYLQMNSLRAEDTAVYYCAKFRSEFNENEPSSYYGMDVWGQGTLVTVSS
VL: B4 VL with S33D, Y35T, Q54N, Y94S, N97S, G98A
B8: EW16 (antibody, human IgG1, lambda, V domains shown)
VH: EVQLLESGGGLVQPGGSLRLSCAASGFTFSDYYMSWVRLAPGKGLEWVSAISHSSGNTYYADSVKGRFTISRDNSKNTLYLQMNSLRAEDTAVYYCAKHLGAQSDEPDSSSNGMDVWGQGTLVTVSS
VL: B4 VL with S23T, S33D, Q54N, V59I, Y94D
B9: EW26 (antibody, human IgG1, lambda, V domains shown)
VH: EVQLLESGGGLVQPGGSLRLSCAASGFTFSNYAMSWVRQAPGKGLEWVSAIYPGGGNTYYADSVKGRFTISRDNSKNTLYLQMNSLRAEDTAVYYCAKSLSTHSVDEPSSDNAMDVWGQGTLVTVSS
VL: B4 VL with S23T, N31S, Y35S, S51D, Q54N, G90A, T91S, G98A
B10: EW06 (antibody, human IgG1, lambda, V domains shown)
VH: EVQLLESGGGLVQPGGSLRLSCAASGFTFSGYDMSWVRQAPGKGLEWVSGISHGDGNIYYADSVKGRFTISRDNSKNTLYLQMNSLRAEDTAVYYCAKVGLLFVQEEPSYYNAMDVWGQGTLVTVSS
VL: B4 VL with S23T, N31S, S33N, Y35T, D52N, Q54H, E84G, Y94D
B11: HAL 7-12 (antibody, human IgG1, lambda, V domains shown)
VH: QLQLQESGGGLVQPGGSLRLSCAASGFTFSSYAMSWVRQAPGKGLEWVSAISGSGGSTYYADSVEGRFTISRDNSKNTLYLQMNSLRAEDTAVYYCAKERLEEPGFFDYWGQGTLVTVSS
VL: QSALTQPASVSGSPGQSITISCTGTSSDVGGYNYVSWYQQHPGKAPKLMIYEVSNRPSGVSNRFSGSKSGNTASLTISGLQAEDEAHYYCSSYTTDNAWVFGGGTQLTVLG
B12: EW09 (antibody, human IgG1, lambda, V domains shown)
VH: B5 VH with N31D, S33D, S53Y, S54G, N57S, T58I, V93M, V99D, H100A, L101A
VL: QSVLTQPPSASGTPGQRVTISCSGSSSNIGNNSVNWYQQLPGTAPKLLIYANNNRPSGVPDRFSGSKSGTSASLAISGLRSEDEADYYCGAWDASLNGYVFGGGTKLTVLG
B13: HAL 8-7 (antibody, human IgG1, kappa, V domains shown)
VH: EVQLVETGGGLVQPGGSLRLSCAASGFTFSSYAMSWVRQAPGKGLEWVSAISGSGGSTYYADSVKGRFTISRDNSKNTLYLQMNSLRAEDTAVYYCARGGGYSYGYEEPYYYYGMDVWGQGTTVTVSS
VL: AIQLTQSPLSLSVSAGEKVTMSCKSSQSLLNSGNQKNDLAWYQQKPGQRPKLLIYGASTRESGVPDRFTGSGSGTDFTLTISSVQAEDLAVYYCQNDHSYPLTFGAGTKLEIKR
B14: EW02 (antibody, human IgG1, lambda, V domains shown)
VH: B5 VH with S33A, R87G, R98K, V99Y, L101S, Y102V
VL: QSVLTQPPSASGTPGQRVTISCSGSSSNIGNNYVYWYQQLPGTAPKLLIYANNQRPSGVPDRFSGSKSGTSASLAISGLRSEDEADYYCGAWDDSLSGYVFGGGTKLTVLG
notes: also called EW02 antibody
B15: huAbF46-H4-A1 (IgG2 Fc) (antibody, V domains shown)
VH: EVQLVESGGGLVQPGGSLRLSCAASGFTFTDYYMSWVRQAPGKGLEWLGFIRNKANGYTTEYSASVKGRFTISRDNSKNTLYLQMNSLRAEDTAVYYCARDNWFAYWGQGTLVTVSS
VL: DIQMTQSPSSLSASVGDRVTITCKSSQSLLASGNQNNYLAWYQQKPGKAPKMLIIWASTRVSGVPSRFSGSGSGTDFTLTISSLQPEDFATYYCQQSYSRPYTFGQGTKVEIKR
notes: It was biotinylated in some assays; also called anti-c-Met antibody; biotinylated anti-c-Met antibody
B16: AbF46 (antibody, V domains shown)
VH: EVKLVESGGGLVQPGGSLRLSCATSGFTFTDYYMSWVRQPPGKALEWLGFIRNKANGYTTEYSASVKGRFTISRDNSQSILYLQMDTLRAEDSATYYCARDNWFAYWGQGTLVTVSA
VL: DILMTQSPSSLTVSAGEKVTMSCKSSQSLLASGNQNNYLAWHQQKPGRSPKMLIIWASTRVSGVPDRFIGSGSGTDFTLTINSVQAEDLAVYYCQQSYSAPLTFGAGTKLELK
notes: Mouse monoclonal antibody from a hybridoma; tested as hybridoma culture supernatant in the selection ELISA; also called mouse antibody AbF46; monoclonal antibody of hybridoma KCLRF-BP-00220
B17: HAL 7-7 (antibody, human IgG1, lambda, V domains shown)
VH: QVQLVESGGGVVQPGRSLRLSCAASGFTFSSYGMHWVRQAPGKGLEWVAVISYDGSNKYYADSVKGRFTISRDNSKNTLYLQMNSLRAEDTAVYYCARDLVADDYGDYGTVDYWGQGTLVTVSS
VL: QSVLTQPPSVSMAPGQTARITCGGNNIATKGVHWYQQKAGQAPVLVVYDDSGRPSGIPDRFSGSKSGNTATLTISRVEAGDEADYYCQLWDGRSDQVLFGGGTKLTVLG

Assay [1] concerns the target B15. As to the kind of experiment: bridging ELISA: plate coated with anti-c-Met antibody, anti-idiotype antibody, biotinylated anti-c-Met antibody as detector. The protocol: (§1) The antibodies prepared in Example 1 above were produced in 293 F cells (invitrogen), purified and quantified to adjust their concentration, and then used for the following tests. The quantification of the purified antibodies was performed using a Nano-drop machine, and numerals reflecting A280/A260 absorption values were used. The quantification results were confirmed again through SDA-PAGE procedures. […] After blocking, the plates were washed with a PBST (0.05% Tween20 in PBS) and then treated with the anti-idiotype antibodies prepared in example 1 at 10-fold serial dilution concentrations (10 μg/ml, 1 μg/ml, 0.1 μg/ml, and 0.01 μg/ml) starting from 10 μg/ml, respectively to react at a room temperature for one hour. After the reaction was complete, the plates were washed again with a microplate washer (Biotek ELx405, PBST).
(§2) For color development, the plates were treated with TMB (3,3,5,5-tetramethylbenzidine) which is a HRP substrate, and absorption was measured at 450 nm.

The target of assay [2] is B15. Kind of assay: bridging ELISA: plate coated with anti-c-Met antibody 1 ug/ml; anti-idiotype antibody at 0.01 to 10 (ug/ml per paragraph 258, axis prints no unit); detection with biotinylated anti-c-Met antibody 200 ng/ml and avidin-HRP; absorbance at 450 nm. The method, then: as §1, §2
(In general: An ELISA detects its analyte on a solid surface through an enzyme-linked reagent.)

For assay [3], the target named is B15. As to the kind of experiment: SPR (Biacore). A general note: In SPR one partner is held on a chip, and binding of the other changes the refractive index at the surface.
For the assay “EW01”, the target named is B4. Kind of assay: sandwich ELISA: plate coated with EW01 0.25 ug/ml; anti-c-Met antibody titrated 3-fold from 1 ug/ml in cynomolgus monkey serum (10% per paragraph 268; the sheet's title prints 0.1% serum); detector biotinylated EW01 0.25 ug/ml, streptavidin-HRP; Abs450. The protocol: After the reaction of the detection antibody was over, the same washing procedures as above were carried out, and a HRP-streptavidin solution (BioLegend) was added thereto to react at a room temperature for one hour. After all the reactions were over, the plates were finally washed and treated with a TMB substrate for color development, and absorption was measured at 450 nm and analyzed.

In the assay “EW02” the target is B14. Kind of assay: sandwich ELISA: capture EW02 0.25 ug/ml; anti-c-Met antibody titrated 3-fold from 1 (ug/ml per paragraph 273, axis prints no unit) in 10% human serum; detector EW01-biotin 0.25 ug/ml, streptavidin-HRP; absorbance at 450 nm. The source says:
Finally, the plates were washed with a washing solution (PBST (0.05% Tween20 in PBS)) to eliminate unreacted HRP and then, they were subject to color development using a TMB substrate to measure absorption at 450 nm.

Assay [4] has as its target T1, c-Met protein (358-MT/CF, RND systems) (UniProt P08581 25-932).
T1 construct: Bought reagent, known only by its catalogue number; also called antigen c-Met protein
Kind of assay: ELISA, 'Pre-existing Experiment (0.1% serum)': plate coated with c-Met protein; anti-c-Met antibody titrated 3-fold from 1 ug/ml in monkey serum diluted to 0.1%; Abs450.

In assay [5] the target is T2, human c-Met/Fc fusion protein (R&D Systems) (human, UniProt P08581 25-932).
T2 construct: Bought; also called human c-Met/Fc protein; not shown: Fc part
T2 sequence (P08581 25-932 limits assumed): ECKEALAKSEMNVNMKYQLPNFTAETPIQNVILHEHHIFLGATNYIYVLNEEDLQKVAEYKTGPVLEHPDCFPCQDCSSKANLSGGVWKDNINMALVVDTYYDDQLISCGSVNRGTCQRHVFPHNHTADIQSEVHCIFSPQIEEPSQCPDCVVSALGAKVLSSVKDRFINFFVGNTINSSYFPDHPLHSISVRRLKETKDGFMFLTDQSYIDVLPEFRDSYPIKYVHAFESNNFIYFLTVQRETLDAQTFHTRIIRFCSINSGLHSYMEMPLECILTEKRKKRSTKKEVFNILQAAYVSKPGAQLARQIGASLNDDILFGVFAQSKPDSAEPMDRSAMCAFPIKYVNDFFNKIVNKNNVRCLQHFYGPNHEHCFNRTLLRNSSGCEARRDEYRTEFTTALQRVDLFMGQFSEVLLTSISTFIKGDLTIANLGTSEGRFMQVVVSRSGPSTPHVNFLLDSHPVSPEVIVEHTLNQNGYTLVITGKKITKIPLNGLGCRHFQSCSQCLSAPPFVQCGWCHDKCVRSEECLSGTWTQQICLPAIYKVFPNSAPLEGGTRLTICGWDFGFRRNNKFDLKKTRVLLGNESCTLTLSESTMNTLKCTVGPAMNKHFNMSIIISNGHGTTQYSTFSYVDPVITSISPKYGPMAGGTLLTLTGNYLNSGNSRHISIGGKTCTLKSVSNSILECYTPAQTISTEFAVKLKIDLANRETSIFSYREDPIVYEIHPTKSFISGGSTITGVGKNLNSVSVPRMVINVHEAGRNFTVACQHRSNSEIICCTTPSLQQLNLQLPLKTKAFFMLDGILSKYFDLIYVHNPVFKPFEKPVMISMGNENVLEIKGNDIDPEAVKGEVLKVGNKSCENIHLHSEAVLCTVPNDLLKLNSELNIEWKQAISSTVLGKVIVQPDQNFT
Kind of assay: ELISA, hybridoma culture on plates coated with human c-Met/Fc fusion protein. The method, then: The antibody that remained unbound was removed by washing.
The hybridoma cell culture obtained in Reference Example 1.1.2 was added in an amount of 50 μL to each well of the plates and incubated for 1 hour. The cells remaining unreacted were washed out with a sufficient amount of Tris-buffered saline and Tween 20 (TBST). Goat anti-mouse IgG-horseradish peroxidase (HRP) was added to the plates and incubated for 1 hour at room temperature. The plates were washed with a sufficient amount of TBST, followed by reacting the peroxidase with a substrate (OPD). Absorbance at 450 nm was measured on an ELISA reader.

T1 sequence (P08581 25-932 limits assumed): as above

B1: the binding result with huAbF46-H4-A1 (IgG2 Fc) [1] is “binds”.
Same read-out and setting: under B2 stands “binds”; under B3, “binds”.
As to B4, in the assay with huAbF46-H4-A1 (IgG2 Fc) [2], the binding result is “binds”.
As to B5, in the assay with huAbF46-H4-A1 (IgG2 Fc) [1], the binding result is “binds”.
As for B6, the binding result with huAbF46-H4-A1 (IgG2 Fc) [1] is recorded as “binds”.
The same measure, in the same setting: as for B7, the entry is “binds”.
The same measure, in the same setting: as for B8, the entry is “binds”; as for B9, “binds”; as for B10, “binds”.
B11: in the assay with huAbF46-H4-A1 (IgG2 Fc) [1], the binding result is on record as “binds”.
Same read-out and setting: under B12 stands “binds”; under B13, “binds”.
In the assay with huAbF46-H4-A1 (IgG2 Fc) [3], B14 came in with a Kd of 38.4 nM, a koff of 0.0032 s⁻¹ and an association rate constant (kon) of 85000 M⁻¹ s⁻¹.
As to B15, the “EC50 (read off the curve)” value with EW01 was roughly 0.02 µg/mL; in assay [4], roughly 0.03 µg/mL. Also, the binding result with EW02 is reported as “binds”.
As for B16, in assay [5], the binding result was “binds”.
Turning to B17, the binding result in the assay with huAbF46-H4-A1 (IgG2 Fc) [1] is “binds”.

The term Kd denotes the equilibrium constant for the complex coming apart. The koff is the first-order rate constant of dissociation. By kon is commonly meant the rate constant with which the complex forms. For orientation: EC50 (read off the curve) means the midpoint of the concentration-response curve.
